Source: publication PMC7144946

T1: Yap1 bZIP (Aspergillus fumigatus, UniProt Q4WMH0 135-234)
T1 sequence: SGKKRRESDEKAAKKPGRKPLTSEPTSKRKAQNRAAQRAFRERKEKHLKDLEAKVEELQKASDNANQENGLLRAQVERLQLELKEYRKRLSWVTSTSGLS

B1: cccA-369 (dsDNA)
DNA 1: AAATCCACCAATCAACGCCTCCGTGATTGTCAGCAAT
DNA 2: ATTGCTGACAATCACGGAGGCGTTGATTGGTGGATTT
B2: cyp51A-293 (dsDNA)
DNA 1: GCTGAGCCGAATGAAAGTTGCCTAATTACTAAGGTGT
DNA 2: ACACCTTAGTAATTAGGCAACTTTCATTCGGCTCAGC

Legend:
Test in all cases: SPR
[1] = target: A. fumigatus CCAAT-binding complex (CBC) consisting of HapB(230–299), HapC(40–137) and HapE(47–164) (Aspergillus fumigatus)
Yap1 bZIP = target: T1, Yap1 bZIP
HapX dCBC-BD = HapX dCBC-BD (Aspergillus fumigatus, UniProt Q4WER3 59-158)

Molecule	apparent KD with cccA-369 promoter DNA (HapX on preformed CBC:DNA) [1]	apparent KD with cox6 promoter DNA (HapX on preformed CBC:DNA) [1]	apparent KD with hemH promoter DNA (HapX on preformed CBC:DNA) [1]	Kd (Yap1 bZIP)	binding signal (HapX dCBC-BD)
A. fumigatus HapX(24–158) (from UniProt Q4WER3 24-158) (domain or fragment)	0.4 nM	3600 nM	121 nM	–	–
B1	–	–	–	50 nM	3 fold increase vs HapX
B2	–	–	–	13 nM	–
